Reference: paper PMC9143278

B1: muIL-1β (commercial recombinant murine IL-1β) (ligand)
chain: VPIRQLHYRLRDEQQKSLVLSDPYELKALHLNGQNINQQVIFSMSFVQGEPSNDKIPVALGLKGKNLYLSCVMKDGTPTLQLESVDPKQYPKKKMEKRFVFNKIEVKSKVEFESAEFPNWYISTSQAEHKPVFLGNNSGQDIIDFTMESVSS

The molecules below were run against human and murine IL-1R1 on HEK-Blue IL-1R cells (human and murine).
Molecule IL-1β(H30G)-Tag (ligand) has an SEAP reporter (620 nm) in HEK-Blue IL-1R cells after overnight incubation; EC50 of a 3-fold dilution series from 100 ng/mL of 2.4. IL-1β(N32G)-Tag (ligand) showed an SEAP reporter (620 nm) in HEK-Blue IL-1R cells after overnight incubation; EC50 of a 3-fold dilution series from 100 ng/mL of 0.89. IL-1β(Q15G)-Tag (ligand) gave an SEAP reporter (620 nm) in HEK-Blue IL-1R cells after overnight incubation; EC50 of a 3-fold dilution series from 100 ng/mL of 5.8. Work on IL-1β(R11G)-Tag (ligand) yielded an SEAP reporter (620 nm) in HEK-Blue IL-1R cells after overnight incubation; EC50 of a 3-fold dilution series from 100 ng/mL of 2.7. “IL-1β-Tag (His-TEV-muIL-1β-Tag, wild type) (from UniProt P10749 118-269) (ligand)” gave an SEAP reporter (620 nm) in HEK-Blue IL-1R cells after overnight incubation; EC50 of a 3-fold dilution series from 100 ng/mL of 0.75. “huIL-1β (commercial recombinant human IL-1β) (from UniProt P01584 117-269) (ligand)” was tested, and the SEAP reporter (620 nm) in HEK-Blue IL-1R cells after overnight incubation; EC50, positive control was 0.25. B1 showed an SEAP reporter (620 nm) in HEK-Blue IL-1R cells after overnight incubation; EC50, positive control of 0.21.
